2 molecules from article doi:10.1101/291294 (bioRxiv, 2018) can be followed below.

B1: GIM-containing peptide EDEWVNVQY (peptide)
peptide: EDEWVNVQY
B2: GST-tagged human GABARAP (natural protein)
chain: MKFVYKEEHPFEKRRSEGEKIRKKYPDRVPVIVEKAPKARIGDLDKKKYLVPSDLTVGQFYFLIRKRIHLRAEDALFFFVNNVIPPTSATMGQLYQEHHEEDFFLYIAYSDESVYGL

The assay “GST-tagged human GABARAP” deals with B2. The assay is described as follows: pull-down.
For assay [1], the target named is Recombinant WT XIAP protein (human, UniProt P98170 1-497). The assay is described as follows: pull-down.
Recombinant WT XIAP protein, sequence (P98170 whole entry): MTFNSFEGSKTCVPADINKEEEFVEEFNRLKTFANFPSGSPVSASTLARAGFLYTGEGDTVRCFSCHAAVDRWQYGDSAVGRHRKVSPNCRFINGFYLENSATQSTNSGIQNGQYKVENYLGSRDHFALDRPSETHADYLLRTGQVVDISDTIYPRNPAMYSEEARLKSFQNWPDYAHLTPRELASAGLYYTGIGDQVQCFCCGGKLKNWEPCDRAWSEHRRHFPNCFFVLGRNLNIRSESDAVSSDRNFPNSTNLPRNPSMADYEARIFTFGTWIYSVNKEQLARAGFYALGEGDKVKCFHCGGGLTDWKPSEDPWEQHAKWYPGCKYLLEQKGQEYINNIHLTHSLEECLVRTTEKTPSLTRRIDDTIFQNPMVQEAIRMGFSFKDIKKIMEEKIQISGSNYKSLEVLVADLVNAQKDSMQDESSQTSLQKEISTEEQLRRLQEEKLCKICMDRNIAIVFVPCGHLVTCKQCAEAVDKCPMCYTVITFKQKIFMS

For the molecule B1, the binding result with GST-tagged human GABARAP was “binds”.
On to B2, for which the binding result in assay [1] is “binds”.
